These results are taken from the DeepSol protein solubility set.

The series in a line: soluble on expression in E. coli; label from the status in PepcDB or PDB records.
With “MKHIIILGDGMADWPVKSLGDKTLLQYAKTPYMDKLARMGRNGRLITVAEGFHPGSEVANMSVLGYNLPKVYEGRGPLEAASIGVDLKPGEMAMRCNLICVEGEILKNHSSGHISTEEADVLIQYLQEKLGNDRVRFHTGVQYRHLLVIKGGNKELDCTPPHDVPLKPFRPLMVKPLVPEAQETADLINDLILKSQELLKNHPLNLKRMSEGKDPANSIWPWSPGYRPQMPAFSETFPQVKKGAVISAVDLINGIGYYAGLRRIAVEGATGLYNTNYENKVAAALEALKTDDFVYLHIEASDEAGHEGDIDLKLLTIENLDKRAVGPIYEAVKDWDEPVAIAVLPDHPTPCELRTHTSDPIPFLIWYPGIEPDEVQTYDEISACDGSYGVLKEDEFIKEFMNQKNIQ”, the “soluble on expression in E. coli” value is given as “not soluble”.

Consider “MGRHGKRGLNMTKQNSNTDRRSLQDCGVFSSAEYHSVGLSGGKDSSALLLLMLEKGMPIDSVIFADTGMDFPEMAAHIAKLDALLYRERGIHITTLRHPHGFEWLMFDEPKRKPSCLKNRARLGVPPYGNGWPGIKVRWCTGQLKTHLITKEVNRLKKEKNALHYIGIAADEAKRCKDAPNHRYPLVEWGVTEAQALQICYDRGFDFGGLYKIYHRASCWCCPLQRIGELRKLRQHHPELWARLWDMDNRARAQFGAGPLGQFKERWSIEQLDARFSREEKEERA”, for which the “soluble on expression in E. coli” value is listed as “not soluble”.

In the case of “MIKIVTDNFLYEKEKVLALRYMYDSAKKPGITIITVTNKQKYIKNIMDNFRRCLYPKKEFIIILNDTKLQTSLYKNYFSKTKNLKLFKVDSSYSLGECLNLAISKSNYNYIAKMDDDDYYGSHYILDSMNAFNYTDASIIGKATHFIYFEDRTLLNLWCQGNENTYATSVAGATFVMKKSIFNKVKFNSLNNGEDIDLLSQCNNLGIKIYSCSKFNYVYNRHASPDNHSWKISNDLLVKRSIKLCITKSYKRIVHILEHHHHHH”, the “soluble on expression in E. coli” value is “not soluble”.

For the sequence “MGSDKIHHHHHHMEMESPVRILFVIDQFSSPYAGTEGQLLQLISNLPADRFDPELLVLRSSDYVNEGNIPCKVHVLGSSKLFSMKTWLALFQFARRQKQAGTALCHVFFNDSSVLCPPVFGLVGIPTLISRRDMGYWYTRKYLWVLRRTAGFVRGVVANSEAVKRITVQKEGFSDADVSVIYNGYPEGDEELHPLIGEERQRYVETLGLPKSGRFVVLVANLRDIKRIGDAISAMARLTQTLPDTHLVLIGAGDQKPYRMLAEAVGNAGQVHFLGARSDVNNILRVMDVGLLCSESEGYSNAIVEYMQAKLPVVASDVGGNSEAVEHGVTGFLFPMGDVDQMAEQLATVLKGESRAVASMGEAGYKRAGHRHALHTMIEAHCGLYDRLLSGSDYSRSGLGVR”, the “soluble on expression in E. coli” value is “not soluble”.

For “MGSDKIHHHHHHMDENEFDNQRENKAVARVIISFLKYEEYALKEIYNLRVKKWASISDRQKDMVPNYTKYLANLKAAIIENGKFFRSVAEYALQSISFEPGEIVQPNDLDMSKTCSLLTQVYREWSAEAISERNCLNSRLVPFLKTLSPPKADILIPGCGTGRLLVDLSRMGYNCEGNEFSYHMLLVSQYMLNAGLLQNQIIIYPFIHCFSHWKKIEDQLSPIKVPDIEAWSSNKGMGSMSICAGSFVDCYGRNQGTKISSHYTFSRRMQLSRAKAENSKDVVVTNFFIDTGSNILDYLDTIGHVLKPGGIWCNFGPLLYHFENDHGVETTYEVNPYSGFQDKINDYTPLMGLELSSDDIISIATNHLDFELIRRESGILCGYGRYAGPESCAMPGYMCHYWILKSNPTNES”, the “soluble on expression in E. coli” value is reported as “not soluble”.

Consider “MGSDKIHHHHHHMDKIIGLGNALIDVLATLKDDTLLDELELPKGSMQLIDDAKLQQINTKFSQMKTHLATGGSAGNAILGLACLGAGTGFIGKVGNDHYGDFFRKNLQKNNIEDNLLTSEQLPSGVASTFISQDGERTFGTYLGAAASLKAEDLTLEMFKGYAYLFIEGYLVQDHEMILHAIELAKEAGLQICLDMASYNIVENDLEFFSLLINKYVDIVFANEEEAKAFTGEEPEEALRVIAKKCSIAIVKVGANGSYIRKGTEEIKVSAIPVEKVLDTTGAGDYFAAGFLYGLTCGYSLEKCAKIGSILSGNVIQVIGTTISPERWDEIKLNINKVLAE”, for which the “soluble on expression in E. coli” value was “not soluble”.

For the sequence “SLQTEESICTKIMKELHSEDSPNALVIKNEHVKKCDTWPSGGEMVVKDLTVKYVDDGNAILENISFSISPGQRVGLLGRTGSGKSTLLSAFLRMLNIKGEIQIDGVSWNSMTLQEWRKAFGVITQKVFIFSGTFRQNLDPNGKWRDEEIWKVADQVGLKSVIEQFPGQLNFTLVDGGYVLSHGHKQLMCLARSVLSKAKIILLDQPSANLDPITYQVIRRVLRQAFAGCTVVLCEHRIEAMLDCQRFLVIEQGNVWQYESLQALLSEKSVFQRALSSSEKMKLFHGRHSSKQKPRTQITAVKEETEEEVQETRL”, the “soluble on expression in E. coli” value was “not soluble”.

Take “MAHHHHHHMSNHGGSSSLDALGGVETAAAETTRNIVLGLPKDGPVPGSSDAASLQAAEAFIGSIQQEIMACDMANARAMELYARHWWTKVPYFGKRFGSTTATLEVTGADGGGVSGLPACTGTSDGQHKHMRLERSSEVAAVPGTSRGQQQRLNSWFFKLRHPGWVPIIQRPWVPYFCIGCLMLVWTPDIWKLRTLHWCDYQYAEFRRAVHRAYWRATMSAEDYKELMEELERGRPPPFGVSKCPL”: the “soluble on expression in E. coli” value is listed as “not soluble”.

As to “MGSDKIHHHHHHMNKPLDKQLAELDIFSLLLFRAIFETGHANIAARQLDVSAPKVSRALASLRLIFADELFYRRQQGFRPTPLAEQIYPAIRELTDSINLLGMQLKDHQAFHRQECQVFDLAVSSGILTTLALEFNRREGLCPSVVLHHWQENTADRIHAGELDLGLALAPEPHTELSYERLCDAPGLCLVGAANHPIWQYTDICLEHICEYPFLCMNYPGFNDKVDPLELFCHREGLIPPTVLRVTDKEEWFGHLLCQHSLAFASPLEWGLLNALPGVEIKHLPAKEISRLHSGSAVPGLYLIEKPAHHRRYSPDDREKLLHIISLTLGLVTEDHPVNFSI”, the “soluble on expression in E. coli” value is given as “not soluble”.

Turning to “GMSDIKKLGSSWIINWFFGFNQIPTNEDSSIYMKSVLTCAKADGVISPEEKDWALGFCASWGVADWVIEDLKTYEADEALEEVIARSPQVSMAQRDILLSAIWVSAADGELHEKEKAKIRKMATILGIKEEIVDQLEQLYYYEAALRQKRLNLLYPQKSPY”, the “soluble on expression in E. coli” value is given as “soluble”.

As to “MGSDKIHHHHHHMTQPTLPPPPRTRFTVSDFNRMGGSVGFNYRLPGQEGGGTGIENLCIAEGRVEECEIRPGITLIVSDVHVYHHYESTSVMTPRFSAIVMLQGQARARLDKQDDVRLAAQSGLNALYGDTVAMTGVHPAGQRLRSVNLSVTAPEAADDEYTSEIIWKLMQSSAPRLRRWPVPHHLLLSIEHLLECDWDQPLRNMVREGVGTQLLAHALAALQHAPVTHRGLTQRDRQLLERVRERLHEAPGEDHTLDDLARLACMSPSTLRAKFHAVYHRSVFSWLRERRLEVAREQLARGWSVQQAAHFVGYRHATNFATAFRERYGVAPSQLG”, the “soluble on expression in E. coli” value was “not soluble”.

“MTKFIGCIDLHNGEVKQIVGGTLTSKKEDVPKTNFVSQHPSSYYAKLYKDRDVQGCHVIKLGPNNDDAAREALQESPQFLQVGGGINDTNCLEWLKWASKVIVTSWLFTKEGHFQLKRLERLTELCGKDRIVVDLSCRKTQDGRWIVAMNKWQTLTDLELNADTFRELRKYTNEFLIHAADVEGLCGGIDELLVSKLFEWTKDYDDLKIVYAGGAKSVDDLKLVDELSHGKVDLTFGSSLDIFGGNLVKFEDCCRWNEKQG”: the “soluble on expression in E. coli” value is given as “soluble”.

Turning to “MASKRLGKQTVMLQNPPRITSTASIVGPKEGKGPLRLFFDNIIEDEMWGEKSWEKAESKLIRETFSKVLQKGNKTSQEIDYVISGDLLNQCIAANFGLRESDVPFFGVYGACSTIAESMSIGAMLVDGGFADNVVCITSSHFCSAEKQFRFPLELGTQRPPSAQWTVTGSGGVLISNDGSGPYITHITTGKIVDMGIKDANNMGAAMAPAAVDTIVTHFKDTGFTPESYDLILTGDLGAIGREICVELTREQGFNIENIYNDCGLMIYDREKQDTHAGGSGCGCAATVFAGFVYKKLMDGTLKNVLFVATGALLSPVSTQQGESIPSIAHAISITTSPER”, the “soluble on expression in E. coli” value is “soluble”.

With “MNAAQVQALIRMGLPMAEDIDFRVERLDERHALARIPFHGKLVRPGGTLSGPTIMALADAAMYAVILGRLGAVEMAVTSNLNINFLSKPRPEDLLAEASILKLGRRQVVCEVGVFSQSNEEDLVAHVTGTYALPLLEHHHHHH”, the “soluble on expression in E. coli” value is recorded as “soluble”.

Consider “GVSVDARIAKNVEEFLAAAQEINPSYHLISGYRSVAYQTELYNSYVQQEMADDPTLTESQAEKKVQTYSQPPGASEHQTGLAIDMSTVDSLDEADPATVAKVKKIAPKYGFVLRFPDGKTSSTGVGYEDWHFRYVGKESAEYMTEHNLTLEEYLVLLKEKTK”, for which the “soluble on expression in E. coli” value is given as “not soluble”.

On to “MPFPFSRLFSFGVEHETGYVSRQSGRGRVYKGGGYSPFTITFQVSTHRSTMSDVTVAETPAVKTPTKAPKAPKSKTTKEPKAKVAAAHPPFINMVTAAISSLKERKGSSKIAILKYITANYKVGDQLTKINSRLRAALNKGVASKALVQSVGNGASGRFRVAEKAAATKKPVAKKPVAKKAATGEKKAKKTTVAKKTGDKVKKAKSPKKIAKPAAKKVAKSPAKKAAPKKAPAKKAAAPKA”, for which the “soluble on expression in E. coli” value is reported as “not soluble”.

As to “MGSDKIHHHHHHMTQNTTLRIGSGSGWWGDRVEPAERSARLGKLDYLCFETMAEATVSAAQVRKRRDPAFGGYDTYLDDRMRAVLPHCIAHGTRIISNQGWIHPLGAARRVAELCKELGLPDVKIAAVTTTDLTSSICELDLTLLESGEHVSTLRETLISAEPYEGVGPIVEALRAGAQIVVTGRVADPSLFLAPMIHHFGWQADDVARLARGSAIGHLLECGAQVTGGYFGDPGYKDVPEPWNLAFPIAEVEADGSAVISKVAGSGGRIDLQTVKEQMFYEVHDPRRYITPDVIVDFSTAVLEQVAPDRVRISGVSGLPRTDTLKVSLGCTEGHIGEDMFFYAGPGCLEKAKLAKRILEERFAMAALRADELRIDFLGVNAVHGAASPEPACEPNEIAVRVAARTRTREEAAKVGREIDSMAVCGLASTGKRVPHQDRTREIIGVWSALVPRALIRSQVQFV”, the “soluble on expression in E. coli” value is “not soluble”.

Regarding “MTAWHRLPAAARALFGAKGGCTGSQRSYDDVLRVMYELTLRVVNPTYRNRTLANTSGKSAELVGLLVERLNMRRCLDTLRFVHVAGTKGKGTTASYTAALLEAYGLKVGLFTSPHVKDVRERIMVNNEVLPMDTFVHYFFQVVDCFVELAGADKEVTWDLPAPCSFFCLMFLVSLVAFAGESVDVAVVEVGIGGSRDPTNIIIPEASVITALGIDHTEILGDTVEEIALQKAGIMKPGVVCYAAPQGDHPSTRRVLKDYAEGVDSPLVFADDVAVPTDGWPCLSIGGEHAVENSRLALLAARSVMGIPLTQPLDDVERHVLQRTTVMGRSQVLPVGDGSKGTFYLDGAHTYESLRCATRWFVKESTKRTCDSKPRRVLLMYSSRQPERIVEAFRPFVDSFSKAVFVCALDPKGMREIWKNNSDAYTQDKATGLIRCWKTLCGAVPCFSRAAPFVSVEEVVEVVSAASSDDEDTSKPVQVFVTGSFFLVSDIVNLYDSQGS”, the “soluble on expression in E. coli” value is “not soluble”.

As for “MRGGMGNMQKMMKQMQKMQKDMAKAQEELAEKVVEGTAGGGMVTVKANGQKEILDVIIKEEVVDPEDIDMLQDLVLAATNEALKKVDEITNETMGQFTKGMNMPGLF”, the “soluble on expression in E. coli” value is listed as “soluble”.

As for “EVKVEESGGGLVQPGGSMKLSCVASGFTFSNYWMEWVRQSPEKGLEWVAEIRLKSNNYATHYAESVKGRFTISRDDSKSSVYLQMNNLRAEDTGIYYCTRGGAVGAMDYWGQGTSVTVSSATTTAPSVYPLVPGCSDTSGSSVTLGCLVKGYFPEPVTVKWNYGALSSGVRTVSSVLQSGFYSLSSLVTVPSSTWPSQTVICNVAHPASKVDLIKEPSGP”, the “soluble on expression in E. coli” value is “soluble”.
